Measurements taken from US20110045489A1, “Polymerases for Incorporating Modified Nucleotides” (NEW ENGLAND BIOLABS, INC., priority 2008, published 2011).

test system: modified nucleotide; test: Screen of DNA polymerase mutants for modified nucleotide incorporation; assay type: biochemical
From the text: In order to determine the extent of 3′-modified nucleotide incorporation by archaeon DNA polymerases, the titration assay described by Gardner and Jack (2002) was used. In this assay, the efficiency of incorporation of chain terminators was judged by the size of the reaction products in a polymerization reaction. As the efficiency of chain-terminator incorporation increased, the average reaction product size decreased because polymerization was more often halted by terminator addition. By comparing the amount of terminator required to give the same spectrum of reaction products, the relative efficiency of incorporation of the test compounds with the different polymerases was determined.
A complex library of 9° N DNA polymerase mutants was screened for enhanced incorporation of 3′-azido-ddCTP. Several classes of 9° N DNA polymerase mutants were identified with enhanced terminator incorporation. 9° N exo-L408S/Y409A/P410V (Therminator III™, NEB, Inc., Ipswich, Mass.) was purified and characterized in more detail. 9° N DNA polymerase single mutants P410V, L408S, and Y409A and double mutants L408S/P410V, L408S/Y409A, and Y409A/P410V were also purified for comparison. Purification and characterization of DNA polymerase mutants was as described in Gardner and Jack, Nucleic Acids Res. 27:2545-2553 (1999).
A library of 9° N DNA polymerase mutants was constructed by PCR amplification of the polymerase genes using gene-specific primers or codon optimization and gene synthesis Czar et al. Trends Biotechnol 27(2): 63-72 (2009)). The ability to incorporate 3′-modified nucleotide terminators was evaluated by the titration assay for chain terminator incorporation efficiency as described by Gardner and Jack (2002).
Furthermore, the same assay was used to measure 3′-amino-ddCTP incorporation by 9° N exo-L408S/Y409A/P410V (FIG. 3) and to measure rates of incorporation (FIG. 4). Examples of mutants that increased modified nucleotide incorporation by at least two-fold were: […]

Molecule	increase of modified nucleotide incorporation
9° N D141A/E143A/N491V/Y494H: 9° N DNA polymerase mutant (protein, UniProt Q56366 1-775, looked up, variant D141A E143A N491V Y494H) DNA polymerase: MILDTDYITENGKPVIRVFKKENGEFKIEYDRTFEPYFYALLKDDSAIEDVKKVTAKRHGTVVKVKRAEKVQKKFLGRPIEVWKLYFNHPQDVPAIRDRIRAHPAVVDIYEYDIPFAKRYLIDKGLIPMEGDEELTMLAFAIATLYHEGEEFGTGPILMISYADGSEARVITWKKIDLPYVDVVSTEKEMIKRFLRVVREKDPDVLITYNGDNFDFAYLKKRCEELGIKFTLGRDGSEPKIQRMGDRFAVEVKGRIHFDLYPVIRRTINLPTYTLEAVYEAVFGKPKEKVYAEEIAQAWESGEGLERVARYSMEDAKVTYELGREFFPMEAQLSRLIGQSLWDVSRSSTGNLVEWFLLRKAYKRNELAPNKPDERELARRRGGYAGGYVKEPERGLWDNIVYLDFRSLYPSIIITHNVSPDTLNREGCKEYDVAPEVGHKFCKDFPGFIPSLLGDLLEERQKIKRKMKATVDPLEKKLLDYRQRAIKILAVSFHGYYGYAKARWYCKECAESVTAWGREYIEMVIRELEEKFGFKVLYADTDGLHATIPGADAETVKKKAKEFLKYINPKLPGLLELEYEGFYVRGFFVTKKKYAVIDEEGKITTRGLEIVRRDWSEIAKETQARVLEAILKHGDVEEAVRIVKEVTEKLSKYEVPPEKLVIHEQITRDLRDYKATGPHVAVAKRLAARGVKIRPGTVISYIVLKGSGRIGDRAIPADEFDPTKHRYDAEYYIENQVLPAVERILKAFGYRKEDLRYQKTKQVGLGAWLKVKGKK	at least two-fold
9° N D141A/E143A/R406V/L408R: 9° N DNA polymerase mutant (protein, UniProt Q56366 1-775, looked up, variant D141A E143A R406V L408R) DNA polymerase: MILDTDYITENGKPVIRVFKKENGEFKIEYDRTFEPYFYALLKDDSAIEDVKKVTAKRHGTVVKVKRAEKVQKKFLGRPIEVWKLYFNHPQDVPAIRDRIRAHPAVVDIYEYDIPFAKRYLIDKGLIPMEGDEELTMLAFAIATLYHEGEEFGTGPILMISYADGSEARVITWKKIDLPYVDVVSTEKEMIKRFLRVVREKDPDVLITYNGDNFDFAYLKKRCEELGIKFTLGRDGSEPKIQRMGDRFAVEVKGRIHFDLYPVIRRTINLPTYTLEAVYEAVFGKPKEKVYAEEIAQAWESGEGLERVARYSMEDAKVTYELGREFFPMEAQLSRLIGQSLWDVSRSSTGNLVEWFLLRKAYKRNELAPNKPDERELARRRGGYAGGYVKEPERGLWDNIVYLDFVSRYPSIIITHNVSPDTLNREGCKEYDVAPEVGHKFCKDFPGFIPSLLGDLLEERQKIKRKMKATVDPLEKKLLDYRQRAIKILANSFYGYYGYAKARWYCKECAESVTAWGREYIEMVIRELEEKFGFKVLYADTDGLHATIPGADAETVKKKAKEFLKYINPKLPGLLELEYEGFYVRGFFVTKKKYAVIDEEGKITTRGLEIVRRDWSEIAKETQARVLEAILKHGDVEEAVRIVKEVTEKLSKYEVPPEKLVIHEQITRDLRDYKATGPHVAVAKRLAARGVKIRPGTVISYIVLKGSGRIGDRAIPADEFDPTKHRYDAEYYIENQVLPAVERILKAFGYRKEDLRYQKTKQVGLGAWLKVKGKK	at least two-fold
9° N D141A/E143A/R406L/L408E: 9° N DNA polymerase mutant (protein, UniProt Q56366 1-775, looked up, variant D141A E143A R406L L408E) DNA polymerase: MILDTDYITENGKPVIRVFKKENGEFKIEYDRTFEPYFYALLKDDSAIEDVKKVTAKRHGTVVKVKRAEKVQKKFLGRPIEVWKLYFNHPQDVPAIRDRIRAHPAVVDIYEYDIPFAKRYLIDKGLIPMEGDEELTMLAFAIATLYHEGEEFGTGPILMISYADGSEARVITWKKIDLPYVDVVSTEKEMIKRFLRVVREKDPDVLITYNGDNFDFAYLKKRCEELGIKFTLGRDGSEPKIQRMGDRFAVEVKGRIHFDLYPVIRRTINLPTYTLEAVYEAVFGKPKEKVYAEEIAQAWESGEGLERVARYSMEDAKVTYELGREFFPMEAQLSRLIGQSLWDVSRSSTGNLVEWFLLRKAYKRNELAPNKPDERELARRRGGYAGGYVKEPERGLWDNIVYLDFLSEYPSIIITHNVSPDTLNREGCKEYDVAPEVGHKFCKDFPGFIPSLLGDLLEERQKIKRKMKATVDPLEKKLLDYRQRAIKILANSFYGYYGYAKARWYCKECAESVTAWGREYIEMVIRELEEKFGFKVLYADTDGLHATIPGADAETVKKKAKEFLKYINPKLPGLLELEYEGFYVRGFFVTKKKYAVIDEEGKITTRGLEIVRRDWSEIAKETQARVLEAILKHGDVEEAVRIVKEVTEKLSKYEVPPEKLVIHEQITRDLRDYKATGPHVAVAKRLAARGVKIRPGTVISYIVLKGSGRIGDRAIPADEFDPTKHRYDAEYYIENQVLPAVERILKAFGYRKEDLRYQKTKQVGLGAWLKVKGKK	at least two-fold
9° N D141A/E143A/R406T/L408R: 9° N DNA polymerase mutant (protein, UniProt Q56366 1-775, looked up, variant D141A E143A R406T L408R) DNA polymerase: MILDTDYITENGKPVIRVFKKENGEFKIEYDRTFEPYFYALLKDDSAIEDVKKVTAKRHGTVVKVKRAEKVQKKFLGRPIEVWKLYFNHPQDVPAIRDRIRAHPAVVDIYEYDIPFAKRYLIDKGLIPMEGDEELTMLAFAIATLYHEGEEFGTGPILMISYADGSEARVITWKKIDLPYVDVVSTEKEMIKRFLRVVREKDPDVLITYNGDNFDFAYLKKRCEELGIKFTLGRDGSEPKIQRMGDRFAVEVKGRIHFDLYPVIRRTINLPTYTLEAVYEAVFGKPKEKVYAEEIAQAWESGEGLERVARYSMEDAKVTYELGREFFPMEAQLSRLIGQSLWDVSRSSTGNLVEWFLLRKAYKRNELAPNKPDERELARRRGGYAGGYVKEPERGLWDNIVYLDFTSRYPSIIITHNVSPDTLNREGCKEYDVAPEVGHKFCKDFPGFIPSLLGDLLEERQKIKRKMKATVDPLEKKLLDYRQRAIKILANSFYGYYGYAKARWYCKECAESVTAWGREYIEMVIRELEEKFGFKVLYADTDGLHATIPGADAETVKKKAKEFLKYINPKLPGLLELEYEGFYVRGFFVTKKKYAVIDEEGKITTRGLEIVRRDWSEIAKETQARVLEAILKHGDVEEAVRIVKEVTEKLSKYEVPPEKLVIHEQITRDLRDYKATGPHVAVAKRLAARGVKIRPGTVISYIVLKGSGRIGDRAIPADEFDPTKHRYDAEYYIENQVLPAVERILKAFGYRKEDLRYQKTKQVGLGAWLKVKGKK	at least two-fold
9° N D141A/E143A/R406S/L408R: 9° N DNA polymerase mutant (protein, UniProt Q56366 1-775, looked up, variant D141A E143A R406S L408R) DNA polymerase: MILDTDYITENGKPVIRVFKKENGEFKIEYDRTFEPYFYALLKDDSAIEDVKKVTAKRHGTVVKVKRAEKVQKKFLGRPIEVWKLYFNHPQDVPAIRDRIRAHPAVVDIYEYDIPFAKRYLIDKGLIPMEGDEELTMLAFAIATLYHEGEEFGTGPILMISYADGSEARVITWKKIDLPYVDVVSTEKEMIKRFLRVVREKDPDVLITYNGDNFDFAYLKKRCEELGIKFTLGRDGSEPKIQRMGDRFAVEVKGRIHFDLYPVIRRTINLPTYTLEAVYEAVFGKPKEKVYAEEIAQAWESGEGLERVARYSMEDAKVTYELGREFFPMEAQLSRLIGQSLWDVSRSSTGNLVEWFLLRKAYKRNELAPNKPDERELARRRGGYAGGYVKEPERGLWDNIVYLDFSSRYPSIIITHNVSPDTLNREGCKEYDVAPEVGHKFCKDFPGFIPSLLGDLLEERQKIKRKMKATVDPLEKKLLDYRQRAIKILANSFYGYYGYAKARWYCKECAESVTAWGREYIEMVIRELEEKFGFKVLYADTDGLHATIPGADAETVKKKAKEFLKYINPKLPGLLELEYEGFYVRGFFVTKKKYAVIDEEGKITTRGLEIVRRDWSEIAKETQARVLEAILKHGDVEEAVRIVKEVTEKLSKYEVPPEKLVIHEQITRDLRDYKATGPHVAVAKRLAARGVKIRPGTVISYIVLKGSGRIGDRAIPADEFDPTKHRYDAEYYIENQVLPAVERILKAFGYRKEDLRYQKTKQVGLGAWLKVKGKK	at least two-fold
